# Laboratory results from the supplement of paper PMC12764529.
# ± gives the half width of the 95% confidence interval.
# Experiments:
# [1] = folding stability dG unfold from trypsin proteolysis; higher = more stable
# Outline: (§1)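 Unfolding free energy was derived, per protease or combined, by relating Bayesian-fitted K50 values from sequencing counts to a sequence-predicted unfolded-state K50 and a shared folded-state K50. The underlying digests exposed cysteine-free mini-proteins under 80 residues, in a PA-tagged cDNA display construct, to trypsin and chymotrypsin at 11 threefold-diluted concentrations and to a no-protease condition. A filter kept only designs with AlphaFold2 dimer inter-PAE above 15.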
# [2] = folding stability dG unfold from chymotrypsin proteolysis; higher = more stable
# Outline: as §1
# [3] = folding stability dG unfold (combined trypsin and chymotrypsin); higher = more stable
# Outline: as §1
Sequence,folding stability dG unfold [1],folding stability dG unfold [2],folding stability dG unfold [3]
SAGGSAGGSAGKKIPKKIIPKINLKVELVKSKIYYDKKKKKIVKIEYEFKITYPNGFKATSAGGSAGGSAGG [r11_890_TrMRF],1.44 ± 0.053 kcal/mol,1.97 ± 0.11 kcal/mol,1.83 ± 0.2 kcal/mol
SAGMISPEEIAKRLKAGEPVEIYLPDPAEKEALLAELQKLLGLSEEELKEIFAKMKFTEIPATDPRLLASAG [r5_368_JUSTAS],1.16 ± 0.045 kcal/mol,2.03 ± 0.058 kcal/mol,1.67 ± 0.046 kcal/mol
SAGGMTETITGEFDDEEEAIAYAKKIVKEKYPNKNVTMEIETTYDPKTGKYKVTATITIPDEGEEHHSAGGS [r8_17_JUSTAS],4.72 ± 0.35 kcal/mol,5.61 ± 0.18 kcal/mol,5.94 ± 0.37 kcal/mol
SAGGSAGGSAGGMSLSTSVESLTVFDSSGNVLEERTITVEKTVPLFGKPVYVYPTPSNTLSAGGSAGGSAGG [r17_325_JUSTAS],0.136 ± 0.1 kcal/mol,0.248 ± 0.11 kcal/mol,0.265 ± 0.12 kcal/mol
SAGGSAGGSAGGSVAYVAPDGDKLIVRVVRPDGSVEEKEFDSLEDLKTLPDDVPVAFLVSAGGSAGGSAGGS [r4_447_TrMRF],0.86 ± 0.034 kcal/mol,-0.0498 ± 0.15 kcal/mol,0.516 ± 0.11 kcal/mol
SAGGSAGGSAGMKLPEGWEIVAVYRDKETNKLYLIVRDTKTKKLLIVDLDTKKIISAEELSAGGSAGGSAGG [r11_268_TrROS_Hall],3.63 ± 0.18 kcal/mol,4.1 ± 0.13 kcal/mol,4.06 ± 0.1 kcal/mol
SAGGSAGGSAGGDDDWRIMINIEIWPYPNYVRIRFPIMIIPPDGKLIGSVEVTFWIPANDSAGGSAGGSAGG [r7_812_TrROS],3.2 ± 0.18 kcal/mol,3.84 ± 0.37 kcal/mol,3.7 ± 0.38 kcal/mol
SAGGGPVTEETYTIKRPDGTELVVTRYYFPGTGETVVRIYPPSTKTPLSTVPLSEASPELLAEIARRSAGGS [r8_32_JUSTAS],1.2 ± 0.027 kcal/mol,2.108 ± 0.013 kcal/mol,1.79 ± 0.03 kcal/mol
SAGGSAGGSAGMRVVEVYRLPDGSYRIRFPDGTEVEVSPEELEEVARRLGADEVRVRPELSAGGSAGGSAGG [r11_312_JUSTAS],2.4 ± 0.056 kcal/mol,4.201 ± 0.041 kcal/mol,3.78 ± 0.051 kcal/mol
SAGGSAKITLWIWMPPGNPDKMAEEIADYLAERHGWTVKIKDVQIERDPEDDQVWIPVKIEIQPPPSAGGSA [r15_70_TrROS],1.98 ± 0.14 kcal/mol,1.39 ± 0.31 kcal/mol,1.91 ± 0.39 kcal/mol
SAGGSAGGSYYPIEDPNGMKIWVEPDPDNGMYRIRIQFPEGKKVERTFPPGMPLDDIPIKIKDSAGGSAGGS [r12_261_TrROS],0.688 ± 0.094 kcal/mol,-0.0445 ± 0.38 kcal/mol,0.434 ± 0.24 kcal/mol
SAGGSAGGSAGGSMATITPEGDKYLVTITNPDGSTTTKEFDSLEEVKKLPSSYPIEFSDSAGGSAGGSAGGS [r4_447_JUSTAS],2.11 ± 0.065 kcal/mol,0.802 ± 0.026 kcal/mol,1.52 ± 0.094 kcal/mol
SAGGSAGGSAGGEKKKIAKKIKEELEKKGIKVKKVETSEDYIYITFEDGSKKKIKIDKGSAGGSAGGSAGGS [r10_169_TrMRF],2.1 ± 0.16 kcal/mol,1.6 ± 0.18 kcal/mol,1.74 ± 0.2 kcal/mol
SAGGSAGGSAKEFVAKVITPDGKPFTIPFGGETEEEAIEKLKEAIKKAFPEYKGVKIELEEKSAGGSAGGSA [r18_434_TrMRF],0.873 ± 0.057 kcal/mol,0.626 ± 0.27 kcal/mol,0.791 ± 0.2 kcal/mol
SAGGSYLVEVVIEYPKQGVKKTVKLFVNNDPKKAEELAEDIIKELGYPDAKIEIKIIPVDPNDPRVLGSAGG [r13_682_JUSTAS],1.98 ± 0.034 kcal/mol,2.445 ± 0.022 kcal/mol,2.25 ± 0.057 kcal/mol
SAGGGSMPASITTEVTETTTPDATVTKSTVYYPDTGKWLEETTTTGPTTTITTTKFPDGSTTVTTAASAGGS [r16_657_JUSTAS],0.275 ± 0.052 kcal/mol,-1.18 ± 0.28 kcal/mol,-0.175 ± 0.11 kcal/mol
SAGGSAGGSAGHMVKVKITKSKGGSSLPLEEKEIELDIDEEKLEELKEEAKKKGYTVEIESAGGSAGGSAGG [r17_18_JUSTAS],0.0424 ± 0.11 kcal/mol,0.0362 ± 0.15 kcal/mol,-0.0397 ± 0.26 kcal/mol
SAGGSAGGSAGGRLVVFEVKKDELNITGPGEARVVSVEELPGDRVRVVVEVPEGAVPGLASAGGSAGGSAGG [r17_48_TrMRF],0.324 ± 0.084 kcal/mol,1.27 ± 0.066 kcal/mol,0.935 ± 0.12 kcal/mol
SAGGSAGGSAKYITIFFWGSVEEALKSIPIPPGFKVEIDNIHRNPDGWMWVMITIEIPPNMKSAGGSAGGSA [r18_510_TrROS],2.68 ± 0.088 kcal/mol,4.36 ± 0.12 kcal/mol,4.28 ± 0.22 kcal/mol
SAGGPPNYRIKIEYYPPNGMITVELPFDSPDELLDEIRELPGLPVEPDNDGTIIIMFPNHMIKIDIWKSAGG [r13_143_TrROS],2.18 ± 0.067 kcal/mol,2.72 ± 0.056 kcal/mol,2.51 ± 0.11 kcal/mol
SAGGMLVEARPVLRLTLVSPDGTPREFELPFTVPFSPENPEALLEEAEAIARAIAEATGAEAEIEIEPSAGG [r13_853_TrMRF],0.506 ± 0.064 kcal/mol,0.017 ± 0.23 kcal/mol,0.319 ± 0.15 kcal/mol

Sequence,folding stability dG unfold [1],folding stability dG unfold [2],folding stability dG unfold [3]
SAGGSAGGSAGGGKTVVYRFPASLTPEQAVDEITAKVPPNYPVIVEYHPESGTFVAYVPSAGGSAGGSAGGS [r10_163_TrMRF],0.725 ± 0.1 kcal/mol,0.743 ± 0.29 kcal/mol,0.666 ± 0.15 kcal/mol
SAGGSAGGSAGKVVVDFGKPALAEAFGVPLSEIENMSEEEALALAKPLVEEGVVDEVVLSSAGGSAGGSAGG [r11_80_TrMRF],1.26 ± 0.048 kcal/mol,0.524 ± 0.042 kcal/mol,0.88 ± 0.099 kcal/mol
SAGGSAGGMLLDEDGNLVVKIKLENGEEFEAKVTEIKDGKITVEVNGKKVEINAKDIELLPEDESAGGSAGG [r6_575_TrROS_Hall],2.23 ± 0.088 kcal/mol,2.27 ± 0.05 kcal/mol,2.31 ± 0.096 kcal/mol
SAGGSAGGSERWVKIWFPPGGTLEEASKMIEEWAQQLGLPITKIDEIEWDPGNGRVEITIRLKSAGGSAGGS [r12_131_TrROS],1.93 ± 0.046 kcal/mol,2.013 ± 0.015 kcal/mol,2.02 ± 0.062 kcal/mol
SGLLEKFLKEAEEWIKKLGLKVKPGEKVEIPIPFENNLIAKIEFYPGEKIIKVVLIGENKPVEYKFKIEKSA [r9_426_TrMRF],1.53 ± 0.16 kcal/mol,2.32 ± 0.17 kcal/mol,1.88 ± 0.45 kcal/mol
SAGGMAEEVAEAVRDFFESQGLPAEVEPLSVHPNNLVVYRFRVPGYYALVVADPDNPVVVVTVYPLPSAGGS [r8_157_TrMRF],2.46 ± 0.13 kcal/mol,3.45 ± 0.049 kcal/mol,3.08 ± 0.14 kcal/mol
SAGGSGPMTRSITITVTPEIVRDEKGNVTATKYTVTITRSPEVSPEEVEALAAELNAAGIPTTVTPSAGGSA [r2_456_JUSTAS],1.23 ± 0.026 kcal/mol,1.65 ± 0.099 kcal/mol,1.5 ± 0.083 kcal/mol
SAGGSAGGSMVEYTFTVYDPRTGKETLFTVPSDIPFEEAKEKVEKEIRKGLPPNYTVTFTKPASAGGSAGGS [r20_213_JUSTAS],1.75 ± 0.035 kcal/mol,1.45 ± 0.11 kcal/mol,1.58 ± 0.089 kcal/mol
SAGGSAGGPIKDSKGKFIVTFEFPNGLKKKFEVENIKNPEIEFNFNGKKVKTKIIEIKKGDESKSAGGSAGG [r6_575_TrMRF],-0.117 ± 0.12 kcal/mol,-0.004 ± 0.21 kcal/mol,0.0149 ± 0.12 kcal/mol
SAGGSADEELLEKAKEALKKAEPPKIVVLNLPLPSGKELKVTLDPTTNKFTAEFPDGGSKTFDFPESAGGSA [r15_977_JUSTAS],1.05 ± 0.11 kcal/mol,0.86 ± 0.096 kcal/mol,0.858 ± 0.12 kcal/mol
SAKFRVTEIHPNGNNFEIRIERYDPNGEKKKLPIPVNADNMQIDEVDGDKITIYFPNNGREITLPLEDLSAG [r14_947_TrROS],-0.594 ± 0.34 kcal/mol,-0.114 ± 0.42 kcal/mol,-0.152 ± 0.36 kcal/mol
SAGGSAGGGGMTVTITVPVPSPTATYTVSFPSSSATASFTAEPGGPLTITVNAPSVTSITVTVSSAGGSAGG [r6_808_JUSTAS],3.03 ± 0.1 kcal/mol,3.98 ± 0.053 kcal/mol,3.63 ± 0.11 kcal/mol
SAGGMITLPIPLEEAEKLLKELTPDGGDVTTTPLGSLDGEVLYEVTITPPETGNTVTVKVLVPKGRGSAGGS [r16_486_JUSTAS],-0.627 ± 0.32 kcal/mol,0.178 ± 0.11 kcal/mol,0.0837 ± 0.16 kcal/mol
SAGGSAGGSMTIVIKVKSKEDALEAAKALLAELGIEEGAEVKKIEVEEVDPENKEYYVRIEVKSAGGSAGGS [r12_999_TrROS_Hall],1.72 ± 0.13 kcal/mol,1.7 ± 0.029 kcal/mol,1.75 ± 0.14 kcal/mol
SAGMVVVKVTLPGPEEALRAAAAAVPVPVSIERDPEKPDVWTATITFPSPELAPVFVEAFAALGAEVVGSAG [r14_745_JUSTAS],1.96 ± 0.041 kcal/mol,1.29 ± 0.041 kcal/mol,1.69 ± 0.069 kcal/mol
SAGGKPKVEIKIEEIPVDGELYLVIEIKVEEKNATLTLTLPNGEEITMEFDEETGTVRIIARIPLEDLSAGG [r13_380_TrROS_Hall],3.24 ± 0.29 kcal/mol,3.09 ± 0.15 kcal/mol,3.12 ± 0.22 kcal/mol
SAGGMEFEFTREDGRKTRVELEVNPETGEVTEKIYVGGKLLYTFKDGELKYIPDEVAAARIEARLPPESAGG [r13_958_TrMRF],-0.0213 ± 0.12 kcal/mol,1.84 ± 0.079 kcal/mol,1.45 ± 0.11 kcal/mol
SAGGSAGGSAPVLVLETESGVKFETLSLGPGPGALALIVTPDKPALALINLDDPNNIKILASAGGSAGGSAG [r3_450_TrMRF],1.55 ± 0.045 kcal/mol,0.799 ± 0.11 kcal/mol,1.18 ± 0.1 kcal/mol
SAGGSAGGNTIMIPLPPNMPLDEVAKELMDAFPDYPIKDVEYERYGDRPMVTVRFPDGWKITIWSAGGSAGG [r6_492_TrROS],0.543 ± 0.034 kcal/mol,0.818 ± 0.22 kcal/mol,0.838 ± 0.12 kcal/mol
SAGGAPVTTFSLTLENPETGLNWTSTSATYDPATGTLTLNLKRPQSGESLTLTTPVTVVSPEEPELASAGGS [r8_193_JUSTAS],0.699 ± 0.052 kcal/mol,0.819 ± 0.084 kcal/mol,0.813 ± 0.11 kcal/mol
SAGGSAPEIPTDALVRVRDPNSDKWYEATVLEARKLPGGELVYLIRLTKDGNEELVPTDLATVELKSAGGSA [r15_62_JUSTAS],1.05 ± 0.08 kcal/mol,1.53 ± 0.12 kcal/mol,1.29 ± 0.098 kcal/mol
